This assay concerns the target α-CT coiled-coil domain fused with HIS tag (α-CT-His), fluorescently labeled (Arabidopsis thaliana). The experiment in a line: MST. Conditions: domain or fragment.

pKd: −log10 of the molar value.

α-CT coiled-coil domain fused with HIS tag (α-CT-His), fluorescently labeled (Arabidopsis thaliana), sequence (Q9LD43 420-769): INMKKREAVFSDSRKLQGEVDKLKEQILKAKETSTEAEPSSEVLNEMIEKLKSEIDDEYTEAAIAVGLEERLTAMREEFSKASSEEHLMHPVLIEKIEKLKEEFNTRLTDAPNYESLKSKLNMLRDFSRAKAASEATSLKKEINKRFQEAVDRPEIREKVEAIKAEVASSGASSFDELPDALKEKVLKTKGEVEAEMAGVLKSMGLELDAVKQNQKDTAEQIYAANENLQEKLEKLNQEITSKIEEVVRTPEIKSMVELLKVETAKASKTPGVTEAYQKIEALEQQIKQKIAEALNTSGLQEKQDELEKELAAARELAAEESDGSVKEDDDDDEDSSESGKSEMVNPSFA

As a reminder, the pKd is the Kd on a negative log10 scale, so that one unit is a factor of ten. With “coiled-coil domain of CTI2, GST tag removed by thrombin”, the pKd is 5.85.
